We go through 3 substances from doi:10.1101/333286.

The experiment deals with F-actin (polymerized human platelet actin) (human) (UniProt P60709). The experiment can be described thus: co-sedimentation.
In the case of “NMY-2(S1)-MLC4-MLC5 complex, NMY-2(R252A) S1 fragment (from UniProt G5EBY3 1-874; Q09510 1-172; Q9XVI9 1-142)”, the percent of NMY-2 S1 fragment in the pellet with F-actin was found to be 42%.

On to “NMY-2(S1)-MLC4-MLC5 complex, NMY-2(S251A) S1 fragment (from UniProt G5EBY3 1-874; Q09510 1-172; Q9XVI9 1-142)”, for which the percent of NMY-2 S1 fragment in the pellet with F-actin amounted to 91%.

For “NMY-2(S1)-MLC4-MLC5 complex, wild-type NMY-2 S1 fragment (from UniProt G5EBY3 1-874; Q09510 1-172; Q9XVI9 1-142)”, the percent of NMY-2 S1 fragment in the pellet with F-actin was 66%.
